In publication PMC8688357 (Frontiers in Microbiology, 2021):

Target: T1, recombinant biotin peptide-6 x His-tagged SARS-CoV-2 N protein (SARS-CoV-2 N-Bio-His6), biotinylated (SARS-CoV-2, UniProt P0DTC9 1-419)
T1 construct: also called recombinant SARS-CoV-2 N fusion protein
Experiment: ELISA
Conditions: both partners purified

B1: SARS-CoV-2 Spike CD-Fc (fusion protein containing the SARS-CoV-2 Spike C-terminal domain and the human IgG1 Fc domain) (Fc fusion)
chain: LCCMTSCCSCLKGCCSCGSCCKFDEDDSEPVLKGVKLHYT
notes: also called recombinant SARS-CoV-2 Spike CD fusion protein
binding result: binds
